Assays:
[1] = biological target: T1, canine FDP (fibrin-fibrinogen degradation products) (canine); assay: affinity test (RU read-out; instrument not named)
T1 construct: A heterogeneous mixture

[2] = biological target: T1, canine FDP (fibrin-fibrinogen …); assay: kinetic analysis, 1:1 binding fit (RU read-out; instrument not named)

T1 sequence (Q9NRC9 whole entry): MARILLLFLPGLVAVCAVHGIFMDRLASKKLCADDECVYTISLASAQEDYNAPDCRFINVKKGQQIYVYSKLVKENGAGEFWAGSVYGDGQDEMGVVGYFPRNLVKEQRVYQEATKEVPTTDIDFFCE

B1: mAb 14G12-5 (antibody, V domains shown)
VH: EVQLVESGGGLVKPGGSLKLSCAASGFAFNAYDMSWVRQTPEKRLEWVAYISSSGDYTYYPDTVKGRFTVSRDNAKSTLYLHMGSLKSEDTAMYYCAVYYHYDEGLDYWGQGTALTVSS
VL: QIVLIQSPAIMSASPGEKVTMTCSASSSVNYMHWYQQKSGTSPKRWIYDTSKLASGVPARFSGSGSGTSYSLTISSMEAEDAATYYCQQWSSNPPTFGGGTKLEIKR
notes: also called 14G12-5 mAb; recombinant antibody 14G12-5
A Kd [1] of 5030 nM, a Kd [2] of 55.2 nM and a koff [2] of 0.0026 s⁻¹ were found for B1 in this work. The kon [2] was 47100 M⁻¹ s⁻¹.

— patent publication US20250163137A1 (UNI PHARMA, published 2025)
